Assay results from patent publication US20230181756A1 (Novartis, published 2023).

Experiments:
[1] = biological target: T1, human CCR7 (human, UniProt P32248 25-378); experiment: FACS binding on CCR7 expressing cells, against the unconjugated antibody
T1 construct: The assay field tells which; also called hCCR7; NIH3T3.hCCR7
T1 sequence: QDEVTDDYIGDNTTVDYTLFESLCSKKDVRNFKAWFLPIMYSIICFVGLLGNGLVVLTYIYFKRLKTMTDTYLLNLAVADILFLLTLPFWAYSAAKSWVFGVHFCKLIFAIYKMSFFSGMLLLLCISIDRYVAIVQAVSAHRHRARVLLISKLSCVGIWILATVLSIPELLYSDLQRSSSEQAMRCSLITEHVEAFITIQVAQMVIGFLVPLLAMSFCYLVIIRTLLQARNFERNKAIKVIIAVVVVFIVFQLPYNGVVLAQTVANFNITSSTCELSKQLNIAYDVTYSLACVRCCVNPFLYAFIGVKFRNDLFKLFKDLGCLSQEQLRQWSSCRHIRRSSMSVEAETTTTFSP

[2] = biological target: T1, human CCR7; experiment: cell-based or functional assay
[3] = biological target: T1, human CCR7; experiment: cell-based or functional assay; remark: listed apart in the source
[4] = biological target: T1, human CCR7; experiment: cell-based or functional assay; remark: listed apart in the source
[5] = biological target: T2, rat CCR7 (rat, UniProt P47774 25-378 (mouse entry)); experiment: FACS titration, Wistar rat CD4+ T cells
T2 construct: also called NIH3T3.rat CCR7
T2 chain: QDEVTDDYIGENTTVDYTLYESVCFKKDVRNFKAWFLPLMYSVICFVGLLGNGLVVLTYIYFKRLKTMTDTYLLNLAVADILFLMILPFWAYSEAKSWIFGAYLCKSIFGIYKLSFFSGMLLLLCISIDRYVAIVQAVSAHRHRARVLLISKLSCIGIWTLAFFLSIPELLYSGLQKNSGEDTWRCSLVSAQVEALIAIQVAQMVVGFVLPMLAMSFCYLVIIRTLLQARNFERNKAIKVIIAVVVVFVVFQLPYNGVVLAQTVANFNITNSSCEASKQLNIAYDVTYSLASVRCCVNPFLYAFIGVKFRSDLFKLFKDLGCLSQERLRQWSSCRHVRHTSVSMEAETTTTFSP

[6] = biological target: T1, human CCR7; experiment: FACS titration, human CD4+ T cells from PBMC
[7] = biological target: T3, cynomolgus monkey CCR7 (cynomolgus monkey, UniProt P32248 25-378 (human entry)); experiment: FACS titration, cynomolgus CD4+ T cells
T3 construct: also called Cyno CCR7; NIH3T3.cyno CCR7
T3 sequence: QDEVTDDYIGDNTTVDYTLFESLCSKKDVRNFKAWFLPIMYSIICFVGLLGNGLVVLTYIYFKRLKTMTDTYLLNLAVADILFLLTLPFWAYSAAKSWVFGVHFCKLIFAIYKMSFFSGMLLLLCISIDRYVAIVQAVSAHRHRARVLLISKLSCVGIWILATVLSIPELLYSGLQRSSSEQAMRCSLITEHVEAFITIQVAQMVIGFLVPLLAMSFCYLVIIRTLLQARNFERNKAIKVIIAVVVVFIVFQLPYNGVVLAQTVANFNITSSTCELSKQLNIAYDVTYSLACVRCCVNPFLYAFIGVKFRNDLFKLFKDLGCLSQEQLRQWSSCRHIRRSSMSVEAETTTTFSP

[8] = biological target: T1, human CCR7; experiment: FACS titration, NIH3T3 cells expressing human CCR7
[9] = biological target: T4, mouse CCR7 (mouse, UniProt P47774 25-378); experiment: FACS titration, CD-1 mouse CD4+ T cells
T4 construct: also called NIH3T3.mouse CCR7
T4 sequence: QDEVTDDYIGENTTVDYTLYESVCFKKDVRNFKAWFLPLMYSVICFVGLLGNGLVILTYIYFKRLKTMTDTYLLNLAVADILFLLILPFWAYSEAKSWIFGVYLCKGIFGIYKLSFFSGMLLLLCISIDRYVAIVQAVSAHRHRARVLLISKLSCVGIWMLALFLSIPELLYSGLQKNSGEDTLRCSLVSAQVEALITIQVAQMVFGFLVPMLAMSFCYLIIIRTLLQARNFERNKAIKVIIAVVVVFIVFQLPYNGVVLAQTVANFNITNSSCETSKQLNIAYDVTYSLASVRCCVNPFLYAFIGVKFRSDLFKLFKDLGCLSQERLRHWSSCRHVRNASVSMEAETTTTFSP

[10] = biological target: T1, human CCR7; experiment: cell-based or functional assay; remark: listed apart in the source
[11] = biological target: T1, human CCR7; experiment: cell-based or functional assay; remark: listed apart in the source
[12] = biological target: T1, human CCR7; experiment: FACS titration, human CD4+ T cells (receptor density <2,000)

B1: 506E15.CysMab.DAPA.AURIX2 (antibody, human IgG1, kappa, V domains shown)
VH: EVQLVESGGGLVKPGGSLRLSCAASGFTFSSYAMSWIRQAPGKGLEWVATISSGGSFTYYPDSVKGRFTISRDNAKNSLYLQMNSLRAEDTAVYYCARRASTVVGTDFDVWGQGTTVTVSS
VL: DIQMTQSPSSLSASVGDRVTLTCRASQDIGSSLNWLQQKPGKAIKRLIYATSSLDSGVPSRFSGSRSGTDYTLTISSLQPEDFVVYYCLQYASSPPTFGGGTKLEIKR
modifications: AURIX2 on engineered cysteines, DAR 3.80
notes: also called 506E15.DAPA.AURIX2
- difference of geometric mean fluorescence intensity from the unconjugated antibody [1]: ≤ 20%
- ADC activity in cell viability assay; IC50 (nM); DEL cells [2]: 0.0084 nM
- ADC activity in cell viability assay; IC50 (nM); KE97 cells [2]: 0.0131 nM

B2: Parental 121G12 (antibody, V domains shown)
VH: EVQLVESGGGLVKPGGSLKLSCAASGFTFSTYAMSWVRQTPEKRLEWVATISDGGSYSYYPDNVKGRFTISRDNAKNNLYLQMSHLKSEDTAMYYCARRGSRYEEYYVMDYWGQGTSVTVSS
VL: DIVLTQSPATLSVTPGDSVSLSCRASQSISNNLHWYQQKSHESPKLLIKYASQSISGIPSRFSGSGSGTDFTLSINSVETEDFGMYFCQQSNSWLTFGAGTKLGLK
- pgADC cytotoxic assay, Anti-mFc.MMAF, AMAX (%) [3]: 104%
- pgADC cytotoxic assay, Anti-mFc.MMAF, IC50 [3]: 0.055 nM
- pgADC cytotoxic assay, Fab-ZAP, AMAX (%) [3]: 43%
- pgADC cytotoxic assay, Fab-ZAP, IC50 [3]: 0.064 nM

B3: 674J13 non-humanized CysMab (antibody, human IgG1, kappa, V domains shown)
VH: DVQLQESGPDLVKPSQSLSLTCTVTGYSITSGYSWHWIRQFPGNKLEWMAHIHSSGSTNYNPSLKSRISIIRDTSKNLFFLQLNSVTTEDTATYYCARGGVQAFAYWGQGTLVTVSA
VL: QIVLTQSPAIMSASPGEKVTMTCSASSSVIYMHWYQQKSGTSPKRWIYDTSKLASGVPARFSGSGSGTSYSLTISSMEAEDAATYYCQQWSSNPLTFGAGTTLELKR
notes: Chimeric human IgG1 kappa with CysMab cysteines and wild type Fc; also called Parental 674J13 hIgG1 CysMab; Non-humanized CysMab antibody 674J13
- ADCC activity; IC50 (nM); reporter assay, JVM2 targets and Jurkat-V158 effectors [4]: 1.09 nM
- binding result [5]: no binding
- EC50 [6]: 0.39 to 1.4 nM
- EC50 [7]: 0.45 nM
- EC50 [8]: 3.6 nM
- binding result [9]: no binding

B4: Parental 674J13 (antibody, IgG1, V domains shown)
VH: DVQLQESGPDLVKPSQSLSLTCTVTGYSITSGYSWHWIRQFPGNKLEWMAHIHSSGSTNYNPSLKSRISIIRDTSKNLFFLQLNSVTTEDTATYYCARGGVQAFAYWGQGTLVTVSA
VL: QIVLTQSPAIMSASPGEKVTMTCSASSSVIYMHWYQQKSGTSPKRWIYDTSKLASGVPARFSGSGSGTSYSLTISSMEAEDAATYYCQQWSSNPLTFGAGTTLELK
- pgADC cytotoxic assay, Anti-mFc.MMAF, AMAX (%) [3]: 102%
- pgADC cytotoxic assay, Anti-mFc.MMAF, IC50 [3]: 0.137 nM
- pgADC cytotoxic assay, Fab-ZAP, AMAX (%) [3]: 31%
- pgADC cytotoxic assay, Fab-ZAP, IC50 [3]: 6.12 nM

B5: Parental 506E15 (antibody, V domains shown)
VH: EVMLVESGGGLVKPGGSLKLSCAASGFTFSSYAMSWIRQTPEKRLEWVATISSGGSFTYYPDSVKGRFTISRDNVKNTLYLQMSSLRSEDTAMYYCARRASTVVGTDFDVWGAGTTVTVSS
VL: DIQMTQSPSSLSASLGERVSLTCRASQDIGSSLNWLQQEPDGTIKRLIYATSSLDSGVPKRFSGSRSGSDYSLTISSLESEDFVVYYCLQYASSPPTFGGGTKLEIK
- ADCC reporter assay, 506E15 IC50 (nM), ALL-SIL cells (CCR7 receptor # 6,200) [10]: 0.008 nM
- ADCC reporter assay, 506E15 IC50 (nM), CMLT-1 cells (CCR7 receptor # 29,000) [10]: 0.011 nM
- ADCC reporter assay, 506E15 IC50 (nM), DEL cells (CCR7 receptor # 62,000) [10]: 0.074 nM
- ADCC reporter assay, 506E15 IC50 (nM), DND-41 cells (CCR7 receptor # 1,700) [10]: 0.002 nM
- ADCC reporter assay, 506E15 IC50 (nM), JVM2 cells (CCR7 receptor # 66,500) [10]: 0.046 nM
- ADCC reporter assay, 506E15 IC50 (nM), Jurkat V158 cells (CCR7 receptor # 3,400) [10]: 0.004 nM
- ADCC reporter assay, 506E15 IC50 (nM), MOTN-1 cells (CCR7 receptor # 64,600) [10]: 0.077 nM
- ADCC reporter assay, 506E15 IC50 (nM), PEER cells (CCR7 receptor # 8,700) [10]: 0.038 nM
- ADCC reporter assay, 506E15 IC50 (nM), SR786 cells (CCR7 receptor # 27,800) [10]: 0.011 nM
- pgADC cytotoxic assay, Anti-mFc.MMAF, AMAX (%) [3]: 95%
- pgADC cytotoxic assay, Anti-mFc.MMAF, IC50 [3]: 0.07 nM
- pgADC cytotoxic assay, Fab-ZAP, AMAX (%) [3]: 60%
- pgADC cytotoxic assay, Fab-ZAP, IC50 [3]: 0.135 nM

B6: 506E15 non-humanized CysMab (antibody, human IgG1, kappa, V domains shown)
VH: EVMLVESGGGLVKPGGSLKLSCAASGFTFSSYAMSWIRQTPEKRLEWVATISSGGSFTYYPDSVKGRFTISRDNVKNTLYLQMSSLRSEDTAMYYCARRASTVVGTDFDVWGAGTTVTVSS
VL: DIQMTQSPSSLSASLGERVSLTCRASQDIGSSLNWLQQEPDGTIKRLIYATSSLDSGVPKRFSGSRSGSDYSLTISSLESEDFVVYYCLQYASSPPTFGGGTKLEIKR
notes: Chimeric human IgG1 kappa with CysMab cysteines and wild type Fc; also called Parental 506E15 hIgG1 CysMab; Non-humanized CysMab antibody 506E15
- ADCC activity; IC50 (nM); reporter assay, JVM2 targets and Jurkat-V158 effectors [4]: 0.131 nM
- binding result [5]: no binding
- EC50 [6]: 4.6 to 9.7 nM
- EC50 [7]: 6.6 nM
- binding result [9]: no binding

B7: 674J13.CysMab.DAPA.AURIX2 (antibody, human IgG1, kappa, V domains shown)
VH: DVQLQESGPGLVKPSQTLSLTCTVSGYSITSGYSWHWIRQHPGKGLEWMAHIHSSGSTNYNPSLKSRITISRDTSKNQFSLKLSSVTAADTAVYYCARGGVQAFAYWGQGTLVTVSS
VL: EIVLTQSPATLSASPGERVTMSCSASSSVIYMHWYQQKPGQAPRRWIYDTSKLASGVPARFSGSGSGTDYTLTISSMEPEDAAVYYCQQWSSNPLTFGQGTKLEIKR
modifications: DAR LC 0.03; AURIX2 on engineered cysteines, DAR HC 3.93
notes: also called 674J13.DAPA.AURIX2
- ADC activity in cell viability assay; IC50 (nM); CML-T1 cells (CCR7 receptor levels ~29,000) [11]: 3.78 nM
- ADC activity in cell viability assay; IC50 (nM); DEL cells (CCR7 receptor levels ~100,000) [11]: 0.242 nM
- ADC activity in cell viability assay; IC50 (nM); KE97 cells (CCR7 receptor levels ~100,000) [11]: 0.102 nM
- ADC activity in cell viability assay; IC50 (nM); SR786 cells (CCR7 receptor levels ~28,000) [11]: 2.74 nM
- difference of geometric mean fluorescence intensity from the unconjugated antibody [1]: ≤ 20%
- ADC activity in cell viability assay; IC50 (nM); DEL cells [2]: 0.117 nM
- ADC activity in cell viability assay; IC50 (nM); KE97 cells [2]: 0.0658 nM

B8: Humanized 684E12 hIgG1 DAPA CysMab (antibody, V domains shown)
VH: EVQLVESGGGLVKPGGSLRLSCAASGFTFSNFAMSWVRQAPGKGLEWVSTISTGGTYTYYPDSVKGRFTISRDNAKNSLYLQMNSLRAEDTAVYYCARRGYSGVDKWGQGTTVTVSS
VL: DVVMTQSPLSLPVTLGQPASISCKSGQSLLDSTGKTYLNWFLQRPGQSPRRLIYLVSKLDSGVPDRFSGSGSGTDFTLKISRVEAEDVGVYYCWQGTHFPQTFGGGTKLEIKR
notes: also called Humanized CysMab.DAPA antibody 684E12
- EC50 [12]: ~7 nM

B9: Parental 684E12 (antibody, IgG1, V domains shown)
VH: EVHLVESGGGLVKPGGSLKLSCAASGFTFSNFAMSWVRQTPEKRLEWVATISTGGTYTYYPDSVKGRFTISRDNAKKTLYLQMSSLRSEDTAMYYCTRRGYDGVDKWGQGTTLTVSS
VL: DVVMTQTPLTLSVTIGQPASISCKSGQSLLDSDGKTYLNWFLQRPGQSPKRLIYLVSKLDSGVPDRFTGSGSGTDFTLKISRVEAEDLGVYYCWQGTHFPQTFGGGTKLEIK
- pgADC cytotoxic assay, Anti-mFc.MMAF, AMAX (%) [3]: 80%
- pgADC cytotoxic assay, Anti-mFc.MMAF, IC50 [3]: 0.214 nM
- pgADC cytotoxic assay, Fab-ZAP, AMAX (%) [3]: 33%
- pgADC cytotoxic assay, Fab-ZAP, IC50 [3]: 2.6 nM

B10: 684E12.SMCC.DM1 (antibody, V domains shown)
VH: EVHLVESGGGLVKPGGSLKLSCAASGFTFSNFAMSWVRQTPEKRLEWVATISTGGTYTYYPDSVKGRFTISRDNAKKTLYLQMSSLRSEDTAMYYCTRRGYDGVDKWGQGTTLTVSS
VL: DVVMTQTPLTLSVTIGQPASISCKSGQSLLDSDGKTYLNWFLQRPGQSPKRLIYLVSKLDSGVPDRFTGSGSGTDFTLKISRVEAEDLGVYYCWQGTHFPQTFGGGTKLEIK
modifications: SMCC-DM1 on lysines of the antibody, DAR 2.6
notes: also called parental 684E12.SMCC.DM1
- difference of geometric mean fluorescence intensity from the unconjugated antibody [1]: ≤ 20%
